Here are results for one molecule from publication PMC7519299.

The target of this assay is ATP synthase subunit c (bovine), P32876. As to conditions: remark: other sources report otherwise.

B1: ATP synthase subunit c, P32876 62-136 (natural protein)
chain: DIDTAAKFIGAGAATVGVAGSGAGIGTVFGSLIIGYARNPSLKQQLFSYAILGFALSEAMGLFCLMVAFLILFAM
modifications: here or on the partner: trimethyllysine at position 43; trimethyllysine at position 43
Broadly, the stoichiometry N is the number of molecules, sites or subunits per partner or assembly. B1: the stoichiometry N turned out to be 8.
